In patent US20190241671A1 (Merck KGaA, published 2019):

Columns and labels:
[1] = target: T1, CD19 antigen on Daudi lymphoma cells (human, UniProt P15391 20-556); assay: FACS competition on Daudi cells; unlabeled antibody 400 ng/ml (4x) vs competitor biotin-B4 VH0/VK0 100 ng/ml
T1 construct: whole, on cells; also called Daudi cells
T1 sequence (looked up): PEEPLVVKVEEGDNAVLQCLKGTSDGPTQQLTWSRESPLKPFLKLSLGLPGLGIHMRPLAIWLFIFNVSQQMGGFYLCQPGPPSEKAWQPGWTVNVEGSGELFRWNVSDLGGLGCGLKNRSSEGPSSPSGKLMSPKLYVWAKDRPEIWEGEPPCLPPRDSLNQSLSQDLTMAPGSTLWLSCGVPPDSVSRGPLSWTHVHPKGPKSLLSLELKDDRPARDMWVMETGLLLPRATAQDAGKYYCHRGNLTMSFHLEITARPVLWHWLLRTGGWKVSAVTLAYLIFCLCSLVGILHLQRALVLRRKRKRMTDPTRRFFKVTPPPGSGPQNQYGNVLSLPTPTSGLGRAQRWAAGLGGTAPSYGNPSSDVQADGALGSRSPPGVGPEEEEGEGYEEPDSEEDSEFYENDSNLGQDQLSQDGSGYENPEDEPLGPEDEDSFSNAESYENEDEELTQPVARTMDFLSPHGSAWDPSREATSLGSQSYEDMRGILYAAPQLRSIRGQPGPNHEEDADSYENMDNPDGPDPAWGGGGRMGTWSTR
Description: (§1) Briefly, a titration series was prepared of biotin-labeled B4 VH0/VK0 antibody pre-mixed at a final concentration of 100 ng/ml with one of the unlabeled, experimental B4 VHvx/VKvy antibodies at 800 ng/ml, 400 ng/ml, 200 ng/ml, 100 ng/ml, and 50 ng/ml in a PBS/2% serum buffer. As a control, the biotin-labeled antibody was pre-mixed with unlabeled B4 VH0/VK0 antibody at the same concentrations as above (inhibition control) or with buffer only (positive binding control). The combined antibodies were added to Daudi cells for 30 minutes at 4° C. A 1:200 dilution of FITC-labeled streptavidin was added to the cells and the samples were incubated for a further 30 minutes at 4° C. Bound amount of labeled B4 VH0/VK0 antibody was quantitated by FACS analysis, and the results were expressed as “percent inhibition,” relative to the positive binding control. The tested antibodies were B4 VH0/VK0 (C), B4 VHv1/VKv1 (1), B4 VHv2/VKv1 (2), B4 VHv1/VKv2 (3), B4 VHv2/VKv2 (4), B4 VHv3/VKv3 (5), B4 VHv4/VKv3 (6), B4 VHv3/VKv4 (7), B4 VHv4/VKv4 (8), B4 VHv5/VKv4 (9), and B4 VHv6/VKv4 (10).

[2] = target: T1, CD19 antigen on Daudi lymphoma cells; assay: FACS competition on Daudi cells; unlabeled antibody 200 ng/ml (2x) vs competitor biotin-B4 VH0/VK0 100 ng/ml
Description: as §1

[3] = target: T1, CD19 antigen on Daudi lymphoma cells; assay: FACS competition on Daudi cells; unlabeled antibody 100 ng/ml (1x) vs competitor biotin-B4 VH0/VK0 100 ng/ml
Description: as §1

[4] = target: T1, CD19 antigen on Daudi lymphoma cells; assay: FACS competition on Daudi cells; unlabeled antibody 800 ng/ml (8x) vs competitor biotin-B4 VH0/VK0 100 ng/ml
Description: as §1

[5] = target: T1, CD19 antigen on Daudi lymphoma cells; assay: FACS competition on Daudi cells; unlabeled antibody 50 ng/ml (0.5x) vs competitor biotin-B4 VH0/VK0 100 ng/ml
Description: as §1

[6] = target: T1, CD19 antigen on Daudi lymphoma cells; assay: FACS competition on Daudi cells; unlabeled antibody 400 ng/ml (4x) vs competitor biotin-B4 VH0/VK0 100 ng/ml; remark: listed apart in the source
Description: as §1

[7] = target: T1, CD19 antigen on Daudi lymphoma cells; assay: FACS competition on Daudi cells; unlabeled antibody 800 ng/ml (8x) vs competitor biotin-B4 VH0/VK0 100 ng/ml; remark: listed apart in the source
Description: as §1

[8] = target: T1, CD19 antigen on Daudi lymphoma cells; assay: FACS competition on Daudi cells; unlabeled antibody 50 ng/ml (0.5x) vs competitor biotin-B4 VH0/VK0 100 ng/ml; remark: listed apart in the source
Description: as §1

[9] = target: T1, CD19 antigen on Daudi lymphoma cells; assay: FACS competition on Daudi cells; unlabeled antibody 100 ng/ml (1x) vs competitor biotin-B4 VH0/VK0 100 ng/ml; remark: listed apart in the source
Description: as §1

[10] = target: T1, CD19 antigen on Daudi lymphoma cells; assay: FACS competition on Daudi cells; unlabeled antibody 200 ng/ml (2x) vs competitor biotin-B4 VH0/VK0 100 ng/ml; remark: listed apart in the source
Description: as §1

Binder	% inhibition of labeled B4 binding [1] [%]	% inhibition of labeled B4 binding [2] [%]	% inhibition of labeled B4 binding [3] [%]	% inhibition of labeled B4 binding [4] [%]	% inhibition of labeled B4 binding [5] [%]	% inhibition of labeled B4 binding [6] [%]	% inhibition of labeled B4 binding [7] [%]	% inhibition of labeled B4 binding [8] [%]	% inhibition of labeled B4 binding [9] [%]	% inhibition of labeled B4 binding [10] [%]
B4 VHv6/VKv4 antibody (antibody, V domains shown, also called 10) VH: QVQLEQPGAEVVKPGASVKVSCKTSGYTFTSNWMHWVKQRPGQGLEWIGEIDPSDSYTNYNQKFDGKAKLTVDKSSSTAYMEVSDLTSEDSATYYCARGSNPYYYAMDYWGQGTSVTVSS VL: QIVLTQSPATLSASPGEKATMTCSASSGVNYMHWYQQKPGTSPKRWIYDTDKTASGVPARFSGSGSGTSYSLTISSMEAEDAATYYCHQRGSYTFGGGTKLEIK	80	70	60	87	53	–	–	–	–	–
B4 VHv1/VKv2 antibody (antibody, V domains shown) VH: QVQLQQPGAEVVKPGASVRLSCETSGYTFTSNWMHWVKQRPDQGLEWIGEIDPSDSYTNYNQKFKGKAELTVDKSSSTAYMEVSDLTSEDSAVYYCARGSNPYYYAMDYWGQGTSVTVSS VL: DIVLTQSPATLSASPGEKVTMTCSASSGVNYMHWYQQKPGTSPKRWIYDTSKLDSGVPARFSGSGSGTSYSLTISSMEAEDAATYYCHQRGSYTFGGGTKLEIK	–	–	–	–	–	44	56	12	20	32
B4 VHv2/VKv1 antibody (antibody, V domains shown) VH: QVQLQQPGAEVVKPGASVRLSCKTSGYTFTSNWMHWVKQRPGQGLEWIGEIDPSDSYTNYNQKFKGKAELTVDKSSSTAYMEVSDLTSEDSAVYYCARGSNPYYYAMDYWGQGTSVTVSS VL: QIALTQEPAIMSASPGEKVTMTCSASSGVNYMHWYQQKPGTSPKRWIYDTSKLDSGVPARFSGSGSGTSYSLTISSMEAEDAATYYCHQRGSYTFGGGTKLEIK	–	–	–	–	–	40	56	8	16	28
B4 VHv1/VKv1 antibody (antibody, V domains shown) VH: QVQLQQPGAEVVKPGASVRLSCETSGYTFTSNWMHWVKQRPDQGLEWIGEIDPSDSYTNYNQKFKGKAELTVDKSSSTAYMEVSDLTSEDSAVYYCARGSNPYYYAMDYWGQGTSVTVSS VL: QIALTQEPAIMSASPGEKVTMTCSASSGVNYMHWYQQKPGTSPKRWIYDTSKLDSGVPARFSGSGSGTSYSLTISSMEAEDAATYYCHQRGSYTFGGGTKLEIK	–	–	–	–	–	44	56	12	16	28
B4 VHv2/VKv2 antibody (antibody, V domains shown) VH: QVQLQQPGAEVVKPGASVRLSCKTSGYTFTSNWMHWVKQRPGQGLEWIGEIDPSDSYTNYNQKFKGKAELTVDKSSSTAYMEVSDLTSEDSAVYYCARGSNPYYYAMDYWGQGTSVTVSS VL: DIVLTQSPATLSASPGEKVTMTCSASSGVNYMHWYQQKPGTSPKRWIYDTSKLDSGVPARFSGSGSGTSYSLTISSMEAEDAATYYCHQRGSYTFGGGTKLEIK	–	–	–	–	–	44	56	8	16	32

Results, then the binder that gave them:

% inhibition of labeled B4 binding [1] [%]	% inhibition of labeled B4 binding [2] [%]	% inhibition of labeled B4 binding [3] [%]	% inhibition of labeled B4 binding [4] [%]	% inhibition of labeled B4 binding [5] [%]	% inhibition of labeled B4 binding [6] [%]	% inhibition of labeled B4 binding [7] [%]	% inhibition of labeled B4 binding [8] [%]	% inhibition of labeled B4 binding [9] [%]	% inhibition of labeled B4 binding [10] [%]	Binder
–	–	–	–	–	44	56	12	16	32	B4 VHv4/VKv3 antibody (antibody, V domains shown) VH: QVQLEQPGAEVVKPGASVKVSCKTSGYTFTSNWMHWVKQTPGKGLEWIGEIDPSDSYTNYNQKFDGKAKLTVDKSSSTAYMEVSDLTAEDSATYYCARGSNPYYYAMDYWGQGTSVTVSS VL: QIVLTQSPATLSASPGEKATMTCSASSGANYMHWYQQKPGTSPKRWIYDTSKLASGVPARFSGSGSGTSYSLTIESMEAEDAATYYCHQRGSYTFGGGTKLEIK
–	–	–	–	–	52	60	12	20	36	B4 VHv3/VKv4 antibody (antibody, V domains shown) VH: QVQLEQPGAEVKKPGASVKVSCKASGYTFTSNWMHWVKQRPGQGLEWIGEIDPSDSYTNYNQKFKGKAKLTVDKSSSTAYMEVSDLTAEDSAVYYCARGSNPYYYAMDYWGQGTSVTVSS VL: QIVLTQSPATLSASPGEKATMTCSASSGVNYMHWYQQKPGTSPKRWIYDTDKTASGVPARFSGSGSGTSYSLTISSMEAEDAATYYCHQRGSYTFGGGTKLEIK
87	70	57	90	47	–	–	–	–	–	B4 VHv5/VKv4 antibody (antibody, V domains shown) VH: QVQLEQPGAEVKKPGASVKVSCKASGYTFTSNWMHWVRQAPGKGLEWIGEIDPSDSYTNYNQKFDGKAKLTVDKSSSTAYMEVSDLTSEDSATYYCARGSNPYYYAMDYWGQGTSVTVSS VL: QIVLTQSPATLSASPGEKATMTCSASSGVNYMHWYQQKPGTSPKRWIYDTDKTASGVPARFSGSGSGTSYSLTISSMEAEDAATYYCHQRGSYTFGGGTKLEIK
–	–	–	–	–	48	60	12	16	32	B4 VHv4/VKv4 antibody (antibody, V domains shown) VH: QVQLEQPGAEVVKPGASVKVSCKTSGYTFTSNWMHWVKQTPGKGLEWIGEIDPSDSYTNYNQKFDGKAKLTVDKSSSTAYMEVSDLTAEDSATYYCARGSNPYYYAMDYWGQGTSVTVSS VL: QIVLTQSPATLSASPGEKATMTCSASSGVNYMHWYQQKPGTSPKRWIYDTDKTASGVPARFSGSGSGTSYSLTISSMEAEDAATYYCHQRGSYTFGGGTKLEIK
–	–	–	–	–	40	60	12	20	36	B4 VHv3/VKv3 antibody (antibody, V domains shown) VH: QVQLEQPGAEVKKPGASVKVSCKASGYTFTSNWMHWVKQRPGQGLEWIGEIDPSDSYTNYNQKFKGKAKLTVDKSSSTAYMEVSDLTAEDSAVYYCARGSNPYYYAMDYWGQGTSVTVSS VL: QIVLTQSPATLSASPGEKATMTCSASSGANYMHWYQQKPGTSPKRWIYDTSKLASGVPARFSGSGSGTSYSLTIESMEAEDAATYYCHQRGSYTFGGGTKLEIK
